Measurements taken from PMC6180485, “Elongation/Termination Factor Exchange Mediated by PP1 Phosphatase Orchestrates Transcription Termination” (Cell Reports, 2018).
Non-standard residues stand in square brackets, D forms with d. No end group written: not given here. pS = N[C@@H](COP(=O)(O)O)C(=O)O; FAM = 5'-fluorescein amidite

T1: Double-repeated Ser5P (Schizosaccharomyces pombe)
T1 chain: {FAM}-YSPT[pS]PSYSPT[pS]PS

T2: S. cerevisiae Pcf11 CID1-144 (S. cerevisiae, UniProt P39081 1-144)
T2 chain: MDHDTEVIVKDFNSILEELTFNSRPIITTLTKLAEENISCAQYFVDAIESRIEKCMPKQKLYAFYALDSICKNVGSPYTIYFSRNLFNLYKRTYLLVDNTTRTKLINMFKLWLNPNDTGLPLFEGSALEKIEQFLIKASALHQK

T3: S. pombe Pcf11 CID1-139 with an N-terminal His6-SUMO tag (S. pombe)
T3 chain: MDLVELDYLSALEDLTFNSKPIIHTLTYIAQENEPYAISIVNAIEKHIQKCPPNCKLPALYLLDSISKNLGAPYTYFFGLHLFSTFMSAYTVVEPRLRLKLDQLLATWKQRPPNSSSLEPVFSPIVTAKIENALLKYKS

B1: S. cerevisiae Nrd1 CID1-152 (domain or fragment)
chain: MQQDDDFQNFVATLESFKDLKSGISGSRIKKLTTYALDHIDIESKIISLIIDYSRLCPDSHKLGSLYIIDSIGRAYLDETRSNSNSSSNKPGTCAHAINTLGEVIQELLSDAIAKSNQDHKEKIRMLLDIWDRSGLFQKSYLNAIRSKCFAM
B2: Rpb5, subunit of S. pombe Pol II (natural protein, UniProt Q09191 1-210, looked up)
chain: MSAEEKNIVRVFRAWKTAHQLVHDRGYGVSQAELDLTLDQFKAMHCGMGRNLDRTTLSFYAKPSNDSNKGTIYIEFAKEPSVGIKEMRTFVHTLGDHNHKTGILIYANSMTPSAAKIIATVTGQFTIETFQESDLIVNITHHELVPKHILLSPDEKKELLDRYKLRETQLPRIQLADPVARYLGLKRGEVVKIVRRSETSGRYNSYRICA
notes: Rpb5, RNA polymerase subunit, S. pombe; stood in the assay as a subunit of m11; source: endogenous, S. pombe (Rpb9-Flag strain), purified as part of Pol II (anti-Flag M2 agarose, HiTrap Q)
B3: Rpc10, subunit of S. pombe Pol II (natural protein, UniProt P48011 1-63, looked up)
chain: MNHPTSTGGTAFNPPRPATMIYLCADCGARNTIQAKEVIRCRECGHRVMYKMRTKRMVQFEAR
notes: Rpc10, RNA polymerase subunit, S. pombe; stood in the assay as a subunit of m11; source: endogenous, S. pombe (Rpb9-Flag strain), purified as part of Pol II (anti-Flag M2 agarose, HiTrap Q)
B4: S. pombe Seb1 CID1-148 (domain or fragment)
chain: MSGIAEFDGILDSLEHSKTGISGSKILKLTNLSMENVSENAQFVASVYKYAKRAPVTHKLGALYILDSIVRSFQDGAKKNNESFENPVDASFSGGWCKAAEITDSLVADAIQHAPSAHLPKILKLCDIWEKASTFPPEKLESLRSKLK
B5: FAM-labeled two-repeat CTD peptide, Ser2P (peptide)
chain: {FAM}-YSPTSPSYSPTSPS
modifications: also: phospho-Ser2 of heptad, which repeat not given here
B6: Rpb7, subunit of S. pombe Pol II (natural protein, UniProt O14459 1-172, looked up)
chain: MPFFLKELSLTISLHPSYFGPRMQDYLKAKLLADVEGTCSGQYGYIICVLDSNTIDIDKGRVVPGQGFAEFEVKYRAVLWRPFRGEVVDAIVTTVNKMGFFANIGPLNVFVSSHLVPPDMKFDPTANPPNYSGEDQVIEKGSNVRLKIVGTRTDATEIFAIATMKEDYLGVL
notes: Rpb7, RNA polymerase II subunit, S. pombe; stood in the assay as a subunit of m11; source: endogenous, S. pombe (Rpb9-Flag strain), purified as part of Pol II (anti-Flag M2 agarose, HiTrap Q)
B7: Rpb3, subunit of S. pombe Pol II (natural protein, UniProt P37382 1-297, looked up)
chain: MDSETHITIRNISKNSVDFVLTNTSLAVANSLRRVVLAEIPTVAIDLVEINVNTSVMPDEFLAHRLGMIPLDSSNIDEPPPVGLEYTRNCDCDQYCPKCSVELFLNAKCTGEGTMEIYARDLVVSSNSSLGHPILADPKSRGPLICKLRKEQEISLRCIAKKGIAKEHAKWSPTSAVAFEYDPWNKLQHTDYWFENDADAEWPKSKNADWEEPPREGEPFNFQEEPRRFYMDVESVGSIPPNEIMVQGLRILQEKLAVLVRDLDEEQPTQLSANELNMEENAEMNWSPYQNGEENTW
notes: Rpb3, RNA polymerase II subunit, S. pombe; stood in the assay as a subunit of m11; source: endogenous, S. pombe (Rpb9-Flag strain), purified as part of Pol II (anti-Flag M2 agarose, HiTrap Q)
B8: Rpb4, subunit of S. pombe Pol II (natural protein, UniProt O74825 1-135, looked up)
chain: MPRAIFEEDAAQLKLGPEFENEDMLTVSEAKILIETVLAQRARETNGEIPMTDVMKKTVAYFNVFARFKTAEATYACERILGNRFHKFERAQLGTLCCEDAEEARTLIPSLANKIDDQNLQGILDELSTLRKFQD
notes: Rpb4, RNA polymerase II subunit, S. pombe; stood in the assay as a subunit of m11; source: endogenous, S. pombe (Rpb9-Flag strain), purified as part of Pol II (anti-Flag M2 agarose, HiTrap Q)
B9: S. cerevisiae Rtt103 CID (domain or fragment)
chain: MPFSSEQFTTKLNTLEDSQESISSASKWLLLQYRDAPKVAEMWKEYMLRPSVNTRRKLLGLYLMNHVVQQAKGQKIIQFQDSFGKVAAEVLGRINQEFPRDLKKKLSRVVNILKERNIFSKQVVNDIERSLKTESSPVEALVLPQKLKDFAKDYEKLVKMHH
B10: Full-length Seb1 with C-terminal His8-tag (natural protein, S. pombe, UniProt Q9UTE3 1-620, looked up)
chain: MSGIAEFDGILDSLEHSKTGISGSKILKLTNLSMENVSENAQFVASVYKYAKRAPVTHKLGALYILDSIVRSFQDGAKKNNESFENPVDASFSGGWCKAAEITDSLVADAIQHAPSAHLPKILKLCDIWEKASTFPPEKLESLRSKLKDAMASTEPVSVDSAAAPSQSTNPEGNGGSVGSQAAAPTSRPVENDAASILEALAAFAQKAPVPSAAEESVSTPPQPAVAPSVSAVVPNLPVHPATAINAQSQSGNPLSNPLFQPSNVPQSIPSGPMGMKTGSVNDTQSQQITLMNVLASQNVPPAQIDSIMKAAFPNYNAPFQPAGVGSVPLPAPTSSQSLRLGSLHRSRSPSPRSGRPRRSPSPSHLSIPSTLPPADGVPKPTPDGFPRRFERDPTIPPDSIKVYSRTLFLGGITRSVREPVLRSMFERFGSVQSLILNHNYRHGFLKMFRRDAAEKAQVAMENVPFADTTIRTKWGVGFGPRECSDFSTGISVIPIRLLTDADRTWLVTAEYGGTGGLPITPGIALDEPDIEIGLGISSKAISKRGKDFAMRRDERFRGRKPYRGGPPIHHGERHFDSGNDWHGNPSTVPPPTNPYNPGYPYMDPNYSSGYVSQPPWQPQ
notes: Seb1, S. pombe, full length; fractions containing monomeric Seb1 were used; also called Seb1(full-length)-His8; recombinant Seb1; source: E. coli Rosetta, purified (Ni-NTA, Superdex 200); not shown: His8, C-terminal, kept

Columns and labels:
Double-repeated Ser5P = biological target: T1, Double-repeated Ser5P; assay: FP
[1] = biological target: B10; assay: cross-linking; BS3 lysine-lysine cross-linking of reconstituted Seb1:Pol II (6:1 or 4:1 molar ratio) in CB buffer (50 mM HEPES pH 7.6, 150 mM NaCl), 30 min at 4 °C, mass spectrometry (pLink); details: both partners purified
S. cerevisiae Rtt103 CID = biological target: B9; assay: FP
[2] = biological target: B1; assay: FP
S. pombe Seb1 CID1-148 = biological target: B4; assay: FP
[3] = biological target: T2, S. cerevisiae Pcf11 CID1-144; assay: FP
[4] = biological target: T3, S. pombe Pcf11 CID1-139 with an …; assay: FP
[5] = biological target: T4, Rpb1, subunit of S. pombe Pol II (S. pombe, UniProt P36594 1-1752, CTD phosphorylated (Thr4P, Tyr1P, Ser2P, Ser5P detected by western blot)); assay: cross-linking; BS3 lysine-lysine cross-linking of reconstituted Seb1:Pol II (6:1 or 4:1 molar ratio) in CB buffer (50 mM HEPES pH 7.6, 150 mM NaCl), 30 min at 4 °C, mass spectrometry (pLink); details: both partners purified
T4 construct: Rpb1, largest subunit of RNA polymerase II, S. pombe; stood in the assay as a subunit of m11; source: endogenous, S. pombe (Rpb9-Flag strain), purified as part of Pol II (anti-Flag M2 agarose)
T4 sequence (P36594 whole entry): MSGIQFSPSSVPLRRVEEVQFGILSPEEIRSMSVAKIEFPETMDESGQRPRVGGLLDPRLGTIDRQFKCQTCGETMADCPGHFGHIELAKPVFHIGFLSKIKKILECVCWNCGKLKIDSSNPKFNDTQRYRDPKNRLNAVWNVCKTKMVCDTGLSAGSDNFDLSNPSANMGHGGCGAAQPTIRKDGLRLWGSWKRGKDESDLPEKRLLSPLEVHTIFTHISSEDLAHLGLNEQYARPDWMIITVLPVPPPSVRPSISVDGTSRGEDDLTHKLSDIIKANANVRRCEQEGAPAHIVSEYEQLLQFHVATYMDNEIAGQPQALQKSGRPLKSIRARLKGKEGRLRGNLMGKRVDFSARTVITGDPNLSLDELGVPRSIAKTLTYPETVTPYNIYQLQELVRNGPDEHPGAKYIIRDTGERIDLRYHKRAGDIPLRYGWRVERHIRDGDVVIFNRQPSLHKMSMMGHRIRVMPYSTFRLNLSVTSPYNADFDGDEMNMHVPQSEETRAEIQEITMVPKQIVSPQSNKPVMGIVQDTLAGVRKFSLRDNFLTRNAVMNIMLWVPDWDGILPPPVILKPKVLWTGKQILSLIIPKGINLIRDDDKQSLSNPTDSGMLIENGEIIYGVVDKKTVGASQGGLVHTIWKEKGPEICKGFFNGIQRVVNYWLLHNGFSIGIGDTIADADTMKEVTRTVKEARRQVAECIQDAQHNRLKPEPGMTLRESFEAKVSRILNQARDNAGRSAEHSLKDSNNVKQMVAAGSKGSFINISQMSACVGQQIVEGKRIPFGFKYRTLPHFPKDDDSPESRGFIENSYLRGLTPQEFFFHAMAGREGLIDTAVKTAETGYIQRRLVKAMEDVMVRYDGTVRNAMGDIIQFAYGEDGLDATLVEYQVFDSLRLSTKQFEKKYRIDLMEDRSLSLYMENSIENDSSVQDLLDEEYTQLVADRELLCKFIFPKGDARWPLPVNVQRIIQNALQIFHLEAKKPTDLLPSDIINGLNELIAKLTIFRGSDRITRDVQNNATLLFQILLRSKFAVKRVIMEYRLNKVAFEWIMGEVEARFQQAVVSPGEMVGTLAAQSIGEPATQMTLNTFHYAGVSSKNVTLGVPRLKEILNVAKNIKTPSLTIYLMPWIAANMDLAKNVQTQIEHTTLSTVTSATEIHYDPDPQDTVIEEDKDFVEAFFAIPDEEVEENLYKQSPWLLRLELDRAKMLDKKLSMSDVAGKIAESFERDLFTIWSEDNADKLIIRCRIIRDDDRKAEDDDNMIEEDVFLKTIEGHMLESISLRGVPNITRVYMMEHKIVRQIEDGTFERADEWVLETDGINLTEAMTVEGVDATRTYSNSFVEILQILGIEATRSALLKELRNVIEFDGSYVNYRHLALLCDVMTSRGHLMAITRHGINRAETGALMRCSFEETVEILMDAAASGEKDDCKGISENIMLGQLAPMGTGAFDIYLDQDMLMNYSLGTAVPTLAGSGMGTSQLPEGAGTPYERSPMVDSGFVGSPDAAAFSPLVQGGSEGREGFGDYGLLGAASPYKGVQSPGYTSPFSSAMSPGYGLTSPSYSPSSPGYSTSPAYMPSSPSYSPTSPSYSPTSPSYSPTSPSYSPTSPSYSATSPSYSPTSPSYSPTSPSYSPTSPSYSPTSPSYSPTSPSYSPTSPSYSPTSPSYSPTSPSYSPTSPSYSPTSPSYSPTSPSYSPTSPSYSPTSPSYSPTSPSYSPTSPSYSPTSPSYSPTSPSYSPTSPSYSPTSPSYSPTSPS

[6] = biological target: T5, Rpb2, subunit of S. pombe Pol II (S. pombe, UniProt Q02061 1-1210); assay: as above; details: both partners purified
T5 construct: Rpb2, RNA polymerase II subunit, S. pombe; stood in the assay as a subunit of m11; source: endogenous, S. pombe (Rpb9-Flag strain), purified as part of Pol II (anti-Flag M2 agarose, HiTrap Q)
T5 sequence (Q02061 whole entry): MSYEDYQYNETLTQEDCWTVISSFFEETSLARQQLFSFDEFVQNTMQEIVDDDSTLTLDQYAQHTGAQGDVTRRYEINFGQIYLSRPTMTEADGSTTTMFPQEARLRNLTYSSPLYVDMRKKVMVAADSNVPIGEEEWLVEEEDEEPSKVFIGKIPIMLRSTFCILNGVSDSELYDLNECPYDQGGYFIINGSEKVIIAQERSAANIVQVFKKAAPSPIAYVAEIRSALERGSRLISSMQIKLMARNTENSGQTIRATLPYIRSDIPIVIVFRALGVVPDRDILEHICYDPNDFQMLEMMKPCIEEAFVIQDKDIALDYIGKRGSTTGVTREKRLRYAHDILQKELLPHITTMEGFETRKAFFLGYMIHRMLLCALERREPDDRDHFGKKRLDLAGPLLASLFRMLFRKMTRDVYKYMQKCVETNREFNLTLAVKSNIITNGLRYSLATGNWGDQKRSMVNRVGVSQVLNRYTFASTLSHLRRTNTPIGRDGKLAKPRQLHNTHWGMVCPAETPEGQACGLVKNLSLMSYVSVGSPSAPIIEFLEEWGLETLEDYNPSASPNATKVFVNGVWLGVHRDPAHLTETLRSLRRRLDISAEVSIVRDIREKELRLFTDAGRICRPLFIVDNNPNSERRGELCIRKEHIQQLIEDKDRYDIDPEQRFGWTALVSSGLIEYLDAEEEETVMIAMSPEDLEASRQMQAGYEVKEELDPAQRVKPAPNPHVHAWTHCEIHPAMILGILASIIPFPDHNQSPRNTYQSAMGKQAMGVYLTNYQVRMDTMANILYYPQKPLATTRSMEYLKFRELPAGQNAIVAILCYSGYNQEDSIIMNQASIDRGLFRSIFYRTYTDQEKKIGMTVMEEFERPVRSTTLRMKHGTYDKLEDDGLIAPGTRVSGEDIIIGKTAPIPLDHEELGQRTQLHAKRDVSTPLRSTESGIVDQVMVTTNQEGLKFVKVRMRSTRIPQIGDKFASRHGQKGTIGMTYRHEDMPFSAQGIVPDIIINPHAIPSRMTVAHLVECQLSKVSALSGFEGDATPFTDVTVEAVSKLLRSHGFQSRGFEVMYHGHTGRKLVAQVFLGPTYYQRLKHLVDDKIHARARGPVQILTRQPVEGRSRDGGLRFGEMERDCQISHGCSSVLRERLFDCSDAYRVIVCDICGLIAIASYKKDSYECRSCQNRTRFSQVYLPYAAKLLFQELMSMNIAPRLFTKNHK

B1
Kd (Double-repeated Ser5P): 65.8 µM

B2
binding result [1]: binds

B3
binding result [1]: binds

B4
Kd (Double-repeated Ser5P): 281 µM

B5
Kd (S. cerevisiae Rtt103 CID): 32.3 µM
Kd [2]: 126 µM
Kd (S. pombe Seb1 CID1-148): 72.3 µM
Kd [3]: 127 µM
Kd [4]: 48.1 µM

B6
binding result [1]: binds

B7
binding result [1]: binds

B8
binding result [1]: binds

B9
Kd (Double-repeated Ser5P): > 1000 µM

B10
binding result [5]: binds
binding result [6]: binds
